Experimental data from patent US10697970B2, “S100A9 levels for predicting lenalidomide and erythropoietin responsiveness” (H. LEE MOFFITT CANCER CENTER AND RESEARCH INSTITUTE, INC., priority 2015, dated 2020).

How the values were obtained:
[1] = tested on: MDS BM-MNC; assay: Pyroptosis flow cytometry panel in MDS BM-MNC incubated with autologous BM plasma; assay type: cell-based, human
Protocol: For human samples, treated and untreated BM-MNC were incubated overnight in IMDM, supplemented with 10% autologous BM plasma. Subsequently, cells were harvested, washed twice in 1×PBS, and stained with LIVE/DEAD Violet fluorescent reactive dye according to the manufacturer's protocol (Life Technologies). Cells were resuspended in 1×PBS with 2% BSA, and incubated at room temperature for 15 minutes to block non-specific binding. After washing, cells were stained with 30×FAM-FLICA® Caspase-1 and Caspase-3/7 solution at a ratio of 1:30 for 2 hours at 37° C. Cells were washed and stained for cell surface receptors using CD38:PE-CF594, CD33:BV711, CD34:APC (BD Biosciences), and CD71:PE-Cyanine7 (eBioscience). All antibodies were diluted 1:20, and cells were stained for 30 minutes at 4° C. Cells were washed, resuspended in 1× binding buffer, and stained with Annexin-V:Cy5.5 at a dilution of 1:20 for 15 minutes at room temperature (BD Biosciences). 1× binding buffer was added to a final volume of 400 μL. Sample acquisitions were carried out using a BD LSR II flow cytometer and FACSDiva software (BD Biosciences). Calibration of the flow cytometer was carried out prior to each experiment using Rainbow Mid-Range Fluorescent Particles (BD Biosciences). To establish fluorescence compensation settings, ArC Amine Reactive Compensation Beads were used for LIVE/DEAD Violet staining (Life Technologies), and BD CompBead Plus Anti-Mouse Ig κ/Negative Control (BSA) Compensation Plus Particles were used for surface receptor conjugates (BD Biosciences). Data were analyzed using FlowJo 9.7.5 software (FlowJo, LLC, Ashland, Oreg.).

[2] = tested on: MDS BM-MNC; assay: qPCR of pyroptosis-related genes in lower-risk MDS BM-MNC treated with CD33-IgG1; assay type: cell-based, human; settings: lower-risk MDS BM-MNC (n=5), 24 hours, versus autologous BM plasma alone
Protocol: RNA was isolated from BM-MNC using the RNeasy Mini Kit (Qiagen). cDNA was produced using the iScript cDNA Synthesis Kit (Bio-Rad). Sequences for primers can be found in Table 1. GAPDH mRNA was used for transcript normalization. cDNA was amplified using the iQ SYBR Green Supermix and the CFX96 Real-Time PCR Detection System (Bio-Rad). PCR conditions were as follows: 10 minutes at 95° C., followed by 40 cycles of amplification (15 seconds at 95° C. and 1 minute at 60° C.). Relative gene expression was calculated using the […] method.

B1: CD33-IgG1: S100A9 high-affinity chimeric (CD33-IgG1) decoy receptor (protein)
chain: DPNFWLQVQESVTVQEGLCVLVPCTFFHPIPYYDKNSPVHGYWFREGAIISRDSPVATNKLDQEVQEETQGRFRLLGDPSRNNCSLSIVDARRRDNGSYFFRMERGSTKYSYKSPQLSVHVTDLTHRPKILIPGTLEPGHSKNLTCSVSWACEQGTPPIFSWLSAAPTSLGPRTTHSSVLIITPRPQDHGTNLTCQVKFAGAGVTTERTIQLNVTYVPQNPTTGIFPGDGSGKQETRAGVVH
modifications: left off: a dimerising Fc or GST
B1 was tested, and the “reduction of fraction of pyroptotic cells, maximum lineage-specific change, CD33+ cells” value ([1]; CD33+ immature myeloids, 0.5 μg CD33-IgG1 or 0.1 μM IRAK4 inhibitor, 24 hours) was 68%, the “reduction of fraction of pyroptotic cells, maximum lineage-specific change, progenitor cells” value ([1]; CD34+CD38+ progenitor cells, 0.5 μg CD33-IgG1 or 0.1 μM IRAK4 inhibitor, 24 hours) was 23% and the “reduction of fraction of pyroptotic cells, maximum lineage-specific change, stem cells” value ([1]; CD34+CD38− stem cells, 0.5 μg CD33-IgG1 or 0.1 μM IRAK4 inhibitor, 24 hours) was 44%. For the same molecule, the “reduction of fraction of pyroptotic cells, maximum lineage-specific change, CD71+ cells” value ([1]; CD71+ erythroids, 0.5 μg CD33-IgG1 or 0.1 μM IRAK4 inhibitor, 24 hours) was 64%, the “fraction of pyroptotic cells across all lineages studied” value ([1]; MDS BM-MNC (n=4), autologous BM plasma, 0.5 μg CD33-IgG1 or 0.1 μM IRAK4 inhibitor) was “marked reduction” and the MDSC fraction ([1]; short-term treatment with the chimeric receptor) was “significantly reduced”. For the same molecule, the CASP3 expression [2] was “markedly reduced” and the “expression of CASP1, IL-1β, IL-18, and NLRP3” value [2] was “reduced”.
